According to a protein production outcome set (Wang et al. 2014):

Test: label from the status in PepcDB records
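Note: failed if final PepcDB status was selected cloned or expressed and not failed if soluble or beyond.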

Row | Sequence | protein production
1 | MFSKGVDSLDRTQDDPVHCMPGLTAGLSGRLLLLTVIFVMIAEVLIFVPSVANMRLSWLRDRLNTAAAAGAVIDGLQAELPRSVQNDTLMATGAKLIALRKDGTSRLLAVAETPPGVDEQYDLSDVSQAAAVRDAFSTLLFGGNRVIRVFDVVGDSDTIIELVLGENKLRAAMLAYARNVFLISIVLSLVTAGLIFISINRIMIRPIRRLTLGMQNFSEDPGNPERIFVPEEGTDELSVAGRHLADMQTELQKTLRQQKNLVDLGLAVSKINHDMRNILSSAQLMSDRLVDAKDPMVRSFAPKLLRTIDRAVAYTGEVLAYGQATEGAPKRKIVPLSLLVRDVRDILALDPDSGIEFHDSVPPDLTVDADSEQLFRVIHNLCRNAVQALQSDVANSAPRHLSISAQRAGSVVSIVIDDNGPGMPRKAKENLFSAFRGSARSGGTGLGLVIARELVLAHGGTIALVEKPGPGTQFRIEIADRAASIQAARTA | failed
2 | MFSMILSGLICGALLGFVMQRGRFCLTGGFRDMYIVKNNRMFYALLIAISVQSVGVFALIQAGLLTYEAGAFPWLGTVIGGYIFGLGIVLAGGCATGTWYRAGEGLIGSWIALFTYMVMSAVMRSPHASGLNQTLQHYSTEHNSIAETFNLSVWPLVAVLLVITLWVVMKELKKPKLKVATLPPRRTGIAHILFEKRWHPFVTAVLIGLIALLAWPLSEATGRMFGLGITSPTANILQFLVAGDMKYINWGVFLVLGIFVGSFIAAKASREFRVRAADAQTTLRSGLGGVLMGFGASIAGGCSIGNGLVMTAMMTWQGWIGLVFMILGVWTASWLVYVRPQRKARLATAAAN | failed
3 | MFSPEQIAGKDVRLLRIKKEGSLDLALEGGVDSPVGKVVVSAVYEGGAAERHGGVVKGDEIMAINGKIVTDYTLAEAEAALQKAWNQGGDWIDLVVAVCPPKEYDDELTFF | not failed
4 | MFSQWVFLSVLALAVPSFAWAEDAVSDLAREQSKAEQGDKRGDELFAEFTRLRQAAETGEPQALFDFGAYFYQQQNYASAREWWGKAAAAGMVRAQIQLAMLYRDGDGGPQDKTEAARWFRKAAEQGDAAAQNEMGVLYWRGEGVDQDRVKAGTWFERAAASGSEDAETNLGWFYLDDSQGVYSATSDEEAALLDRYAGSREKAFQWFCKAATQGDARAQFKVGEAYWNGSGAGMNKLQARLWLEKAAQQQDADAIAWLESAANAAWYTRLENWIHAALDGELSGVADCSGAADRRHSGRGMEGAPSDPEAVEASAEDAQQAVEAASQ | failed
5 | MFTAYKKFWTNYVNFTGRSSRSDYWWAILCNSLIILPFVFTATSIFYSNLIEFIRGSAISTFSGEESVLSVYSIDVIILFIIIVLFSLAILLPNLAISIRRLRDAGFHWSLIFVPIGAALFSFLGLIPFLRAIVSIIVWFALIFYYILLCQPSKPYQAPVQPIAPQQPQQMAPQGQPVQAQVQPQSQTTPQQPQTPPVQQPQAPTNQQ | failed
6 | MFTHLDENQQPRMVDISQKVAGDRRAVAQCIVQLPKAIKDYLTGQEIFLKKGPVIQTAIIAGTMAVKKTADLIPFCHTLPIHGCKFDINIVYQKRDYLEIFLQCAVNTNYKTGVEMEALCGVSVAALTIYDMCKSISSEIIIKNTKLIEKTGGKADVSQTPLYGLVLTGGKSRRMGKDKALINYQGQPHGQYIYDLLAKYCEQVFLSARPSQWQGTPLENLPTLVDRGESVGPMSGILTALQSYPGVNWLIIACDLAYINSTMVEKLIAQARQDLVATCYENADQGFPEALCGFYTPLALQLFTKAQNIGLHCPVKILQMADCQLIKPDNLFDIANINSPEDYGQINLEHHHHHH | not failed
7 | MFTMDDLNQMDTQTLTDTLGSIFEHSSWIAERSAALRPFSSLSDLHRKMTGIVKAADRETQLDLIKKHPRLGTKKTMSDDSVREQQNAGLGKLEQQEYEEFLMLNEHYYDRFGFPFILAVKGKTKQDIHQALLARLESERETEFQQALIEIYRIARFRLADIITEKGETQMKRTMSYGKGNVFAYRTYLKPLTGVKQIPESSFAGRDNTVVGVDVTCEIGGEAFLPSFTDGDNTLVVATDSMKNFIQRHLASYEGTTTEGFLHYVAHRFLDTYSHMDTITLTGEDIPFEAMPAYEEKELSTSRLVFRRSRNERSRSVLKAERSGNTITITEQYSEIMDLQLVKVSGNSFVGFIRDEYTTLPEDGNRPLFVYLNISWQYENTNDSYASDPARYVAAEQVRDLASTVFHELETPSIQNLIYHIGCRILARFPQLTDVSFQSQNHTWDTVVEEIPGSKGKVYTEPRPPYGFQHFTVTREDAEKEKQKAAEKCRSLKA | failed
8 | MFVFMLLLLLPFTISKAKDFPANPIEKAGYKLDFSDEFNGPTLDREKWTDYYLPHWCKDPESAKANYRFENGSLVEYITEDQKPWCPEHDGTVRSSAIMSFDKSWIHNFSGTTDNHERNEWRGYTTKYGYFEIRAKLSNTGGGGHQAWWMVGMQDDTNDWFNSKQTGEIDILETFFSKKDTWRIAAYGWNDPNFQTSWTISEDKVPSGDPTSEYHIYAMEWTPTALKFYYDNELFKVIYGSPDYEMGTILNIYTDAGSGAHNDVWPKEWAIDYMRVWKPVDGYKESESLNNYLIRNRQTGKFLYIEENNDKVSYGDITLKNEKNAKWSKEYRDGYTLLKNNETGEYLNIENQTGYIEHGKVPKTWWSAQWSEVPVDGYTRFVNRWKPNMSIHTESYEGVLQYGNVPNTYWTSQWQLIPVE | not failed
9 | MFVGFLSGLIVMGALLSILLVLLGVMALRVFVRYILPILLILLIIRLIISGIVLLFNPHFWLFIAVVALVLWILGKIRN | failed
10 | MFVLNIFSTTHKQRGLNRASCPPLGNYSNNHTLAYRVKCISEETRDSNSLVSSLNRKLWKTSVAGSDIPMIYSPFLEDMQNTLFASFETVEDYPLSEFLASAQSSKKPARIESWCYQCPKFRKIRLTYLDAGVAAQVFNAVWYPISSLELPILGVDFLSFGGKNVLCVMDFQPLMNDQYYLDKYIQPLHPIRERYADLAGRMSSRFYDENRFFSKELLFGRFDSTKPIYERLFPAFREYLDLYITLAKQTVEDDKSRSIIWQLQCEYDRYSAEKDPAMSLFRSYFGSTWAHRFVYEFLFENSRYESSLDNKT | not failed
11 | MFVNQHGYSFGLSCALDGLSKREKDAQRQNKLLELGLLTNRNSTFFEEATQTLARNLGLPICLVGLMVEDEINIVSAVGIYRLGVGNPNLVSRQISRNDAYCTLVVDSAMPLMITDALAEPFFAEGELYQRYGIRSYLGTPLLTRDGVCLGTLAALDFSPHDFREPDVALMNMTARWCMGEIEH | failed
12 | MFVSLLPLLLLTLVVGTLAGGEAFAERIVTAAGDVLTPAASTLLEDALTSGAGRGGATVLGVGVTLWSALKVFRGLDTAFSRVYGTDGPDSIVREIVDGLAALGGIGIALVGLGIIGAFGTVLGVQVALGGLALVPVLAVAFLPLYYLFPDQEMTLREAVPGAVFAGGGWTLLGTGFNVYAAQADSYQVYGVIGGVLLLVTWFYFAGQVLLVGAAVNAALADRQLQQVSRRRSGKAMSEDADETDTPPPAGTGPTGRDTDTLTDEELQELREEFESFREDIEGRTLHRDEVRSDLKQYVRRRMRRGHARQWGPYIVLLYGTIMTLGAFYYLKGLWAVLAMLVIWLSVLGLYAIMIAVGVTLTATGLPGRLVDRVRDWRQ | failed
13 | MFVWHEYENAAEAAQSLADAVADALQGALDEKGGAVLAVSGGRSPIAFFNALSQKDLDWKNVGITLADERIVPTNHADSNTGLVREYLLKNKAAAAVWIPMVEDGKTETELHPDAVVDYALKHYKQPDVLILGMGNDGHTASIFPKAPQFQTAIDGSAGVALVHTTPVTAPHERISMTLDAIAHTGHVFLAIQGEEKKAVFDQAAQGENREYPISLVLNHQGVNCHVFYAE | not failed
14 | MFYEKIQTPAYILEEDKLRKNCELLASVGEKSGAKVLLALKGFAFSGAMKIVGEYLKGCTCSGLWEAKFAKEYMDKEIHTYSPAFKEDEIGEIASLSHHIVFNSLAQFHKFQAKTQKNSLGLRCNVEFSLAPKELYNPCGRYSRLGIRAKDFENVDLSTIEGLHFHALCEESAGALEAVLKVFEEKFGKWIGQMKWVNFGGGHHITKKGYDVEKLIALCKNFSDKYGVQVYLEPGEAVGWQTGNLVASVVDIIENEKQIAILDTSSEAHMPDTIIMPYTSEVLNARILATRENEKISDLKESEFSYLLTGNTCLAGDVMGEYAFDKKLKIGDKIVFLDQIHYTIVKNTTFNGIRLPNLMLLNAKNELQMIREFSYKDYSLRN | failed
15 | MFYITSKKVPFVTYSKNVFIPVTNICRNQCGYCGFRREPGQPGARLMKPEEVISVLENGVRAGCTEALFTFGERAEEVPGYGEMLEEIGYSSTLEYLVFLCETAIDIGILPHTNAGIMTRSELEALKPLNASMGLMLESTAVLAAHKDCPGKIPERRLETIREAGKLKIPYTTGLLIGIGESRDDRIESLEAIAALHREYGHIQEVIIQNFAPKPGTEMENFPEPAVEEMMDSVELAARILPGDVAVQVAPNLIDPKSLIAKGVTDLGGISPLTIDWINPEAEWPDVKNLQKKLGDIPLKERLPVYPPYVKKGWYSERIGSLIKRLEHHHHHH | failed
16 | MGAKGKFWILTMVVAISGLSQGVLLPLIAIILEEKGVSAGINGFHATGIYLGVLLVSPFIEAPLHKYGYKPIILVGGGLVAIAIFAFPIWFNLYFWFILRLLIGIGDHMLHFSSQTWIGAMSDPSKRGRNMAIYGLFFSVGFAIGPQLVNLAKVNANLPFFLSGILVLIAWSLVWFIRNDFVGEKAVIRKISFWGSIKRFSGVFKMAWVAMIPPFLYGILETGLNATFPVVGLRDGLDTMMIAMIISSFSVGTIIFQVPIGIISDKFGRDKMLPLLTGAGAVVFVLTAFVKIPIFFVIFFFILGILLGSLYSLGLSYMTDLTPLELLPAGNILVGMFFSLGSIIGPSATGMMIGIFGNQIFYFVVAGILLLGCLLLALGGRKEAH | not failed
17 | MGAKGKFWILTMVVAISGLSQGVLLPLIAIILEERGISAGINGFHATGIYLGVLLISPFIEAPLHKYGYKPIILVGGGLVAVSILAFPIWFNLYFWFILRLLIGVGDHMLHFSSQTWIGAMSDPSKRGRNMAIYGLFFSLGFAIGPQLVNLAEINANLPFFLSGILVLIAWGLVWFVRNDFVGEKAVIRKISFWGSLKRFSDVFKLAWVAMIPPFLYGILETGLNATFPVVGLRDGLDTMMIAMVISSFSVGTIIFQVPIGIVSDKFGRGKVLPLLTGAGAVVFVLTAFVKIPVLYVVFFFVLGILLGSLYSLGLSYMTDLTPLELLPAGNILVGMCFSLGSIIGPSATGMMIGIFGNQIFYFVVAGILVLGCLLLIFGARKDALEKKMKN | failed
18 | MGAMAEIQFIRGINEEVVPDVRLTRARDGSSGQAMFYFDNPKIVQEGNLEVTGMYMVDEEGEIVTRDVNAKFINGQPVAIEATYTMRSPQEWDRFIRFMDRYAASHGLGFQKSENS | failed
19 | MGCAGSTQSQADGSVKKIRKPKPWKHTQPITKAELMKLREEFWDTAPHYGGRKEIWDALRAAAEADISLAQAIVDSAGVIVQNTDLTVCYDERGAKYELPKYVLSEPTNLEEEN | failed
20 | MGCFASRPNDTGGNRRKPTSIGDVSVYVPGLRIPKPVEFSQSLGDQLPKTLVERLTALRTRIVVMANQEGPTITRTRRKTQHGGSTLADLHHALEDYIPVLLGLTKDGSHLQFKVQFNWVNQEDEEEETAMSNVWYEILSVLHLMAMLQMSQANLLLLPRGSSDGYHPKISEENRRASIDIFLKAAGYLDCAVKHVLPHFSTEQRRSLPIDLAEGALRALCLQALGQGVDIQLGMAIDSAKATLAVKRRLSCEMVKYWQQAQDNLMNLPLANGWGEKHMLFVKWKYVEAKAAAYYYHGLILDEGNTEKSHGMAVAALQAADECLKESKKASEAFNTSSPTSRTPSLFGTMKYLSEKIPKETSSKVRINRDLYSYEKIMETAPTLPDFALALKPDEYQLPSVDASWSEASLRTKNTSNHI | not failed
